The record followed here is patent CN114349851A (SHANGHAI NAI BIOTECHNOLOGY CO LTD, dated 2022).

The target of one assay is T1, 新冠病毒全长S蛋白 (Spike-trimer) (SARS-CoV-2, UniProt P0DTC2 14-1213).
T1 construct: also called S-FL
Kind of assay: BLI (Octet RED96), His-tagged nanobody on Ni-NTA sensor. (In general: In BLI a coated tip is dipped into the sample, and binding shifts an interference pattern.)

The target of a further assay is T2, B.1.617.1突变株RBD蛋白 (SARS-CoV-2 B.1.617.1, UniProt P0DTC2 319-541).
T2 construct: domain: RBD
Kind of assay: ELISA. Background: An ELISA detects its analyte on a solid surface through an enzyme-linked reagent.

The target of another assay is T3, Delta(B.1.617.2)突变株RBD蛋白 (SARS-CoV-2 Delta (B.1.617.2), UniProt P0DTC2 319-541).
T3 construct: domain: RBD; also called RBD-Delta; RBD-Delta(B.1.617.2)
Kind of assay: BLI (Octet RED96), His-tagged nanobody on Ni-NTA sensor.

B1: 纳米抗体C5 (C5克隆) (VHH)
VHH: DVQLVESGGGSVQAGGSLRLSCAASGKYSHLGFLGWFRQAPGKEREGVAAGLGAYEDGYYADSVKGRFTVSLDNAENTVYLQMNSLKPEDTALYYCAALVVFSRDSPEFLAQNYWGQGTQVTVSS
notes: also called C5抗体; C5 nanobody
One may read the Kd as the free concentration of one partner at which half of the binding sites on the other are occupied at equilibrium, for simple one-to-one binding. A high value points to weaker binding. B1 came in with a Kd in the assay with 新冠病毒全长S蛋白 (Spike-trimer) of 18 nM.

B2: 纳米抗体C5D2 (VHH)
VHH: DVQLVESGGGSVQAGGSLRLSCAASGEYSQLRFLGWFRQAPGKEREGVAAGLGANEDGYYADSVKGRFTVSLDNAENTVYLQMNSLKPEDTALYYCAALVIFSHDGPEFLAQNYWGQGTQVTVSS
Take B2: the binding result with B.1.617.1突变株RBD蛋白 is given as “no binding”. This molecule returned a Kd with Delta(B.1.617.2)突变株RBD蛋白 of 13.1 nM.

B3: 纳米抗体C5G2 (VHH)
VHH: DVQLVESGGGSVQAGGSLRLSCAASGKFSHLVFLGWFRQAPGKEREGVAAGLGAYESGYYADSVKGRFTVSLDNAENTVYLQMNSLKPEDTALYYCAALVVLSRDNTEFIAHNYWGQGTQVTVSS
Turning to B3, in the assay with B.1.617.1突变株RBD蛋白, the binding result is reported as “no binding”. The same molecule had a Kd in the assay with Delta(B.1.617.2)突变株RBD蛋白 of 83.1 nM.
